Data as given in publication PMC3591269.

Target: MINI3 (WRKY10) (Arabidopsis) (UniProt Q9LG05)
Experiment: competition
Conditions: 25 mM Hepes-KOH pH 7.2, 40 mM KCl, 1 mM DTT, 1 mM EDTA, 10% glycerol, 0.01 uM ZnCl2, 2 ug poly-dIdC, 3 ng probe, 1 ug protein in 20 ul; room temperature …

Sequence of MINI3 (WRKY10) (Arabidopsis) (Q9LG05 whole entry): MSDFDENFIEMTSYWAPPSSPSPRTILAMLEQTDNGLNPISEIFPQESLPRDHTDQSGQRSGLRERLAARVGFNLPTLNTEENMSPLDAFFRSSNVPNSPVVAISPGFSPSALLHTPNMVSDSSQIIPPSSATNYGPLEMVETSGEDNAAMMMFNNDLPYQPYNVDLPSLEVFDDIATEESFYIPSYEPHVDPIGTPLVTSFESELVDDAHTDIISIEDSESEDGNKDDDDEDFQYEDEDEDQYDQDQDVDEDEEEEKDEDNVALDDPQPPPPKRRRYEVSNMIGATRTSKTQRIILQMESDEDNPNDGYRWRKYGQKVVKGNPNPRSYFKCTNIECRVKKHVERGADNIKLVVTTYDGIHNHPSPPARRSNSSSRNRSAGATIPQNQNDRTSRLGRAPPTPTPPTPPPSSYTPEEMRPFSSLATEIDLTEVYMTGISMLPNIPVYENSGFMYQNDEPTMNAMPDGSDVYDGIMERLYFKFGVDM

Sequence	binding
GACATTACTGTCATCGTATATGAAACATTATTCTAATAATTGTTATAAAAATACCGGAGTTAAACTAGATTGATTATCACCGAGATTTTATATTTGTCTAGATATATAGATGGTCCATCGAAAGGATTGGTGCTTCCAAAACCTTCGATGTCACCTCCTGA (double strand) [mW3-box fragment]	binds
GACATTACTGTCATCGTATATGAAACATTATTCTAATAATTGTTATAAAAATACCGGAGTTAAACTAGATTGATTATCACCGAGATTTTATATTTGTCAAGATATATAGATGGTCCATCGAAAGGATTGGTGCTTCCAAAACCTTCGATGTCACCTCCTGA (double strand) [W3-box fragment (MINI3 promoter)]	binds
